# Results from patent KR20180136327A (dated 2018).
# T1: Endothelin receptor type A (ET A) on cells (human, UniProt P25101 21-427)
# T1 chain: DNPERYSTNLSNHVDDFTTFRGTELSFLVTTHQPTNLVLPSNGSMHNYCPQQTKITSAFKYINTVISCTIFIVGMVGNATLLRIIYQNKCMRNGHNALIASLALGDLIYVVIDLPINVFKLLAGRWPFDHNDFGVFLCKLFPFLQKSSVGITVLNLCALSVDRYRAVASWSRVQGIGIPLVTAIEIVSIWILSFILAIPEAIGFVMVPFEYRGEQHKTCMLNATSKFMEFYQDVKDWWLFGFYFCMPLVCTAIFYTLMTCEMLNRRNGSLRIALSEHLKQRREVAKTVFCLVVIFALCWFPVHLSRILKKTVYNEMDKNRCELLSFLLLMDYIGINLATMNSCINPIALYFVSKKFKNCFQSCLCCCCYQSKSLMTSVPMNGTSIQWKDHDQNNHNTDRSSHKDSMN
# B1: 발굴항체 (anti-ET A human antibody, VH SEQ ID NO 12 / VL SEQ ID NO 13) fused to Cκ, scAb format (scFv, V domains shown)
# VH: EVQLVESGAEVRKPGASVKVSCKASGYTFTSSDINWIRQATGQGLEWMGYMNPKNGNTDYAQKFQGRISMTRDSSISTAYMELSSLRSEDTAVYYCAKDRYGSGTYGFGMDVWGPGTLVTVS
# VL: DIVMTQSPSAMSASVGDRVSITCRASQGINNYLAWFQQKPGKVPKRLMDVGSILQSGIPSRFRGRGSGTQFTLTISSLQAEDSGTYFCLQHNTYPLTFGPGTKVEIKR
# Biological target: T1, Endothelin receptor type A (ET A) on …
# Assay: cell-based or functional assay
binder,measurement,value
B1,"K i; inhibition of signalling induced by 10 nM ET-1 (cytosolic Ca2+, Fura-2-AM 340/380 nm ratio) in ET A expressed CHO-K1 stable cell line",56 nM
same,"K i; inhibition of signalling induced by 10 nM ET-1 (cytosolic Ca2+, Fura-2-AM 340/380 nm ratio) in HT-29 colon cancer cells",51 nM
